Drawing on doi:10.1101/689042, this text covers stoichiometry N for one substance.

In experiment [1] the target is Sorbitol dehydrogenase SmoS from Sinorhizobium meliloti 1021 (Sinorhizobium meliloti 1021). The experiment is described as follows: crystal structure.
Experiment [2] has the same target. The experiment is described as follows: SEC.

For the substance “Sorbitol dehydrogenase SmoS from Sinorhizobium meliloti 1021 (enzyme)”, the stoichiometry N in experiment [1] and in experiment [2] was 4 in each case.
